This data set relates to ATP. The experiment in a line: switch fluorescence ratio, 500 uM ATP over buffer (Cy3 cluster intensity, sum of 5 cycles each) (fold (ratio)); higher = stronger signal-on switching upon ATP binding; sequences stand for … in TCGTCGGCAGCGTCAGATGTGTATAAGAGACAGTTTTTTTTTTTTTTTTTTTTTTTTT…TC. To be noted: aptamer strand: ATP DNA aptamer (quencher-CACCTGGGGGAGTATTGCGGAGGAAGG + anchor), 100 nM annealed; ATP concentration: 500 uM. The method, boiled down:
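Switching-strand clusters labelled with Cy3 on a modified Illumina MiSeq flow-cell were annealed to 100 nM quencher-labelled ATP aptamer, imaged in selection buffer, and re-imaged after 15 min with 500 uM ATP at 22 °C. This was done over five cycles with NaOH stripping and re-annealing in between. The fluorescence ratio is summed target-cycle over summed buffer-cycle Cy3 intensity per cluster, averaged per switch-domain sequence, excluding clusters outside 100-1000 RFU.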

± gives the standard deviation of the averaged measurements.
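Also: ATP exposure 15 min at 22 °C before imaging.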

GCTAGGCCTT: the switch fluorescence ratio was found to be 0.9957 ± 0.0082.

Turning to GCTAGGGTA, the switch fluorescence ratio came out at 0.9973 ± 0.0043.

In the case of GCTAGGTGAA, the switch fluorescence ratio came to 1.21 ± 0.017.

Consider GCTAGGTTTG, for which the switch fluorescence ratio amounted to 0.998 ± 0.054.

As for GCTAGTGAAC, the switch fluorescence ratio amounted to 1.029 ± 0.0091.

Regarding GCTATAAAAC, the switch fluorescence ratio is 1.03 ± 0.077.

With GCTATAAGGG, the switch fluorescence ratio worked out at 1 ± 0.036.

With GCTATAGAAT, the switch fluorescence ratio stood at 1.01 ± 0.028.

On to GCTATAGGGG, for which the switch fluorescence ratio worked out at 1.02 ± 0.02.

On to GCTATAGGTG, for which the switch fluorescence ratio amounted to 1.27 ± 0.057.

Take GCTATAGTGG: the switch fluorescence ratio was 1.04 ± 0.035.

With GCTATAGTGT, the switch fluorescence ratio amounted to 0.992 ± 0.021.

In the case of GCTATATACA, the switch fluorescence ratio was determined as 1.04 ± 0.014.

On to GCTATCATCG, for which the switch fluorescence ratio was 0.997 ± 0.035.

Consider GCTATCGGGA, for which the switch fluorescence ratio is 1.01 ± 0.037.

GCTATCTGCT: the switch fluorescence ratio is 0.976 ± 0.06.

Regarding GCTATGAAAA, the switch fluorescence ratio was 0.986 ± 0.028.

Turning to GCTATGAG, the switch fluorescence ratio amounted to 0.995 ± 0.037.

GCTATGGTGG: the switch fluorescence ratio worked out at 0.987 ± 0.021.

On to GCTATGTAGG, for which the switch fluorescence ratio is 1 ± 0.062.

For GCTCAAAGTT, the switch fluorescence ratio came out at 0.99 ± 0.02.

As to GCTCAAGTGC, the switch fluorescence ratio is 1.07 ± 0.032.

Take GCTCAGGGGG: the switch fluorescence ratio is 1.03 ± 0.016.

Regarding GCTCATAGGA, the switch fluorescence ratio was determined as 0.972 ± 0.016.

For GCTCCATGGG, the switch fluorescence ratio was 1.02 ± 0.046.

With GCTCCCAAGG, the switch fluorescence ratio is 3.69 ± 0.46.

In the case of GCTCCCGGGC, the switch fluorescence ratio worked out at 1.1 ± 0.041.

Take GCTCCGATAG: the switch fluorescence ratio was determined as 5.2 ± 0.94.

Regarding GCTCCTGACT, the switch fluorescence ratio is 1.15 ± 0.026.

Regarding GCTCGAAAGA, the switch fluorescence ratio was 1.008 ± 0.0024.

In the case of GCTCGAATTA, the switch fluorescence ratio amounted to 1.02 ± 0.016.

As to GCTCGACAAT, the switch fluorescence ratio turned out to be 1.15 ± 0.14.

For GCTCGGAGGA, the switch fluorescence ratio is 1 ± 0.025.

For the sequence GCTCGGGGGA, the switch fluorescence ratio is 0.978 ± 0.022.

For the sequence GCTCGGGGTC, the switch fluorescence ratio amounted to 0.978 ± 0.062.

Consider GCTCTAAGGG, for which the switch fluorescence ratio came to 1.01 ± 0.028.

As to GCTCTAGATG, the switch fluorescence ratio turned out to be 1.04 ± 0.0076.

With GCTCTATACG, the switch fluorescence ratio is 1.049 ± 0.003.

Take GCTCTGGCTA: the switch fluorescence ratio is 1.11 ± 0.022.

Consider GCTCTTGTGC, for which the switch fluorescence ratio was found to be 1.008 ± 0.0034.

In the case of GCTCTTTAGA, the switch fluorescence ratio worked out at 0.962 ± 0.018.

With GCTCTTTGAA, the switch fluorescence ratio was determined as 1.01 ± 0.012.

As to GCTGAAGGGA, the switch fluorescence ratio turned out to be 0.99 ± 0.042.

Consider GCTGAAGTTT, for which the switch fluorescence ratio was 0.979 ± 0.038.

As for GCTGAGAGTC, the switch fluorescence ratio is 0.992 ± 0.034.

As to GCTGAGGGTT, the switch fluorescence ratio was found to be 0.9552 ± 0.006.

Regarding GCTGATACGG, the switch fluorescence ratio stood at 1.07 ± 0.027.

With GCTGATATGG, the switch fluorescence ratio is 1.02 ± 0.054.

In the case of GCTGATCGTA, the switch fluorescence ratio was found to be 0.9915 ± 0.0057.

On to GCTGATTAG, for which the switch fluorescence ratio is 0.954 ± 0.011.

Turning to GCTGCACGGG, the switch fluorescence ratio worked out at 1.01 ± 0.03.

With GCTGCAGCGC, the switch fluorescence ratio is 1.005 ± 0.0042.

Turning to GCTGCCAACC, the switch fluorescence ratio stood at 1.11 ± 0.031.

With GCTGGAAAGG, the switch fluorescence ratio was 1.01 ± 0.079.

On to GCTGGAACTG, for which the switch fluorescence ratio is 1.06 ± 0.14.

Regarding GCTGGAAGCA, the switch fluorescence ratio is 0.986 ± 0.078.

For the sequence GCTGGAATGG, the switch fluorescence ratio was determined as 1.06 ± 0.015.

With GCTGGAGCCA, the switch fluorescence ratio was found to be 1.03 ± 0.019.

On to GCTGGAGGGT, for which the switch fluorescence ratio came to 0.997 ± 0.019.

In the case of GCTGGATGGC, the switch fluorescence ratio was found to be 0.993 ± 0.025.

As for GCTGGCTTGC, the switch fluorescence ratio turned out to be 0.988 ± 0.021.

In the case of GCTGGGACAC, the switch fluorescence ratio turned out to be 1.04 ± 0.012.

On to GCTGGGAGTT, for which the switch fluorescence ratio worked out at 1 ± 0.054.

As for GCTGGGCGAT, the switch fluorescence ratio is 0.961 ± 0.032.

Turning to GCTGGGCGGA, the switch fluorescence ratio worked out at 1.04 ± 0.039.

Take GCTGGGGATT: the switch fluorescence ratio amounted to 0.987 ± 0.02.

On to GCTGGGGGCT, for which the switch fluorescence ratio came out at 1.008 ± 0.0076.

Values taken from the supplement of paper PMC10126150.
